PMC11227718

Tests used:
[1] = cycloheximide chase, immunoblot
[2] = immunoblot of endogenous CCDC88C, BT549; settings: glycan gained; control: empty vector
[3] = immunoblot of endogenous CCDC88C; settings: glycan lost; control: negative control siRNA

| Substance | degradation_or_half_life ([1]; glycan gained, control: empty vector) | expression_or_secretion [2] | degradation_or_half_life ([1]; glycan lost, control: negative control siRNA) | expression_or_secretion [3] |
| --- | --- | --- | --- | --- |
| Coiled-coil domain containing 88C (CCDC88C, Daple): GALNT6 overexpression | increases | increases | – | – |
| Coiled-coil domain containing 88C (CCDC88C, Daple): si-GALNT6 | – | – | decreases | decreases |
